Molecular target: T1, Cdr2-flag (S. pombe, UniProt P87050 1-775)
T1 sequence (looked up): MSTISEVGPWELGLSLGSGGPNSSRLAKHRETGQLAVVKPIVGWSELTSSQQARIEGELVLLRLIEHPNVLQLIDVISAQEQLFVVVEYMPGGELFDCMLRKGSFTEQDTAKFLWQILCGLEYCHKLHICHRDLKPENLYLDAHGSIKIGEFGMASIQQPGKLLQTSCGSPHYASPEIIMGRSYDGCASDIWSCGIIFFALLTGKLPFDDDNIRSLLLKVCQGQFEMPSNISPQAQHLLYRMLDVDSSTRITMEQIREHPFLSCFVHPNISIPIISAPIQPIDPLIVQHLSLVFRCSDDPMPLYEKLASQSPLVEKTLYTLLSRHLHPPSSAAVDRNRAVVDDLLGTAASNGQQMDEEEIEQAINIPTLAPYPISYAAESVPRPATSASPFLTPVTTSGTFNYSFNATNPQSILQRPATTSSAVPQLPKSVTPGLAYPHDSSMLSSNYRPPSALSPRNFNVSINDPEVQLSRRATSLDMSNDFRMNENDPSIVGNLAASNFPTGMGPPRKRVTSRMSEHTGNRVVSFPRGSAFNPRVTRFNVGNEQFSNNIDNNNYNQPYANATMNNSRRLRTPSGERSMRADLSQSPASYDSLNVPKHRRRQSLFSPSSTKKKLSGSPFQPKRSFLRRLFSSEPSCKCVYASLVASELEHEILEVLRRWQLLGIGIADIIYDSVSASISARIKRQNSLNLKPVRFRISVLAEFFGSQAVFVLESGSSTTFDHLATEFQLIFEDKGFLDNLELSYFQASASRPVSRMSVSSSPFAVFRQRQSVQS
Test: co-IP

B1: Mid1–9A-myc13 (natural protein, S. pombe, UniProt P78953 1-920, looked up)
chain: MKEQEFSYREAKDVSLDSKGLENSFLSSPNREKTPLFFEGNSNETSGYDQTKNFTHGDGDMSLGNLSELNVATDLLESLDLRSMYMHGYGHLDSSFSSQHSPDNRKRMSATSVFKRINSEEEGRIPALTYSAGTMNSTSSSTASLKGADIVADYETFNPDQNLAELSFDRSKSSRKRAVEVAEFSRAKTMSPLEYTVQHPYQSHNELSTNPARARAGAVPNLARIPADVKPVPPAHLSASSTVGPRILPSLPKDTTEDNPALERVETTASLDMDYKPLEPLAPIQEAPVEDTSEPFSSVPEATLDDSDISTESLRKKVLAKMEAKRISAGSSYASTLRKVYDFSELSLPTNGKDYDELYLQSSRNSEPEISTIINDSLQQENMDEDISATSIPKSQAAYGHGSVTYHEVPRYNLTSASVGYSISSQRGRIKASSTIDNLSAILSSEDLRHPAMQPVPGTKRTYANYCENEPNKSSQSLVSSESHNVEGWNYSETGTVGFYDPSAEISASIDELRQSTPVARDSELLSRAHAFDLNRLDLPSQDKSTSYEVPNGTENQSPRPVTSLGFVNETFFEEKPKAPLPLGRFYIHLNSILNISISEVHSPIKIIVNTPTQNMQLPWQAVNGNNRLDHDFAFHVDDNFKVSFMFLDIPIEDKSNGSKGVSATKDVSNGKPAETKSKARKFFDKLFNRRKKRKLNKAAAVENSKAKKSVVIKKVSGTATLNLGNVKDSCFGKAFNVEIPIISRGFLEAIPVKINSIGKRTLGNLTLTCLYIPELSVPEQELPFTLEQATMDLRHVRSNYLYNEGYLYRLEDSSIRRRFVVLRSKQLNFYAEKGGQYLDTFQLSKTVVSIPMVNFSEAVSNLGLVAGILATSVDRRHVQLFADSKKVCQKWLQVMNSRSFALDRGTEKLWLQEYVNFMA
fold co-immunoprecipitated against Mid1-myc13: ~2 fold

— article PMC6424596 (Current biology : CB, 2019)
